Measured values as given in US20200079848A1 (Five Prime, published 2020).
“And” between values parts separate entries of the source, which are not always exact repeats. Equal entries are not always repeated.

B1: 10F10.IgG1.3 (antibody, V domains shown)
VH: QVQLVESGGGVVQPGRSLRLSCAASGFTFSSYAMHWVRQAPGKGLEWVAIISYDEYNKYYADSVKGRFTISRDNSKNTLYLQMNSLRAEDTAVYYCAREWVGIRYWGQGTLVTVSS
VL: AIQLTQSPSSLSASVGDRVTITCRASQGISSALAWFQQKPGKAPKLLIYDASSLESGVPSRFTGSGSGTDFTLTISSLQPEDFATYYCQQFNSYPITFGQGTRLEIKR
notes: Fully human antibody, IgG1.3 heavy chain constant region (L234A, L235E, G237A), kappa light chain; also called 10F10 WT; ILT4.10.IgG1.3
B2: 21D9.e.IgG1.3 (antibody, V domains shown)
VH: EVQLLESGGGLVQPGGSLRLSCAASGFTFSNYAMNWVRQAPGKGLEWVSVISVSGGSTYYADSVKGRFTISRDNSKNTLYLQMNSLRAEDTAVYYCAKDYYYDSGSYYDSFFDYWGQGTLVTVSS
VL: not shown
notes: Germline reversion mutant of 21D9 with all four VH reversions; light chain of 21D9; IgG1.3; also called ILT4.8.IgG1.3; ILT4.8

Assays:
rhILT4-Fc [1] = molecular target: T1, rhILT4-Fc (human, UniProt Q8N423-1 22-461); test: flow cytometry blocking assay: antibody titrated (12 points) with rhILT4-Fc fixed at 30 µg/ml; rhILT4-Fc bound to HLA-A overexpressing CHO cells read as % Positive; blocked ligand: HLA-A; the IC50 table has no unit, the concentration axis is in ug/mL
T1 construct: also called rhILT4-Fc fusion protein with a murine Fc tail; not shown: murine Fc tail
T1 sequence (Q8N423 other isoform, or with tags, fused parts or gaps): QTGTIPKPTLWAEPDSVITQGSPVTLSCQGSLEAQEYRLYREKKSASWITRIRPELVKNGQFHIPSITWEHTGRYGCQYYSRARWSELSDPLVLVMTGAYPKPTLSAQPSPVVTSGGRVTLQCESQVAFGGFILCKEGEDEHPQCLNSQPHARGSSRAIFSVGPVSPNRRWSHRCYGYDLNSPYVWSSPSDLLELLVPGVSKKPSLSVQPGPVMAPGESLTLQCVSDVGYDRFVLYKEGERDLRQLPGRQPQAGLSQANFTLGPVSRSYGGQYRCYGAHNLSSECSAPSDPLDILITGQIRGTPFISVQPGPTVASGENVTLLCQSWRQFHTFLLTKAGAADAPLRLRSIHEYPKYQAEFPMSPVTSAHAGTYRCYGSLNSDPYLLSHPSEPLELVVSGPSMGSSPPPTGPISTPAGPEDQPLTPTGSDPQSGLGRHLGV

human LILRA3 = molecular target: T2, human LILRA3 (human, UniProt Q8N6C8 24-439); test: flow cytometry, 293T transfectants, antibody 20 µg/ml; stacked histograms, control: parental cells
T2 construct: whole, on cells; also called hLILRA3; LIRA3
T2 sequence (Q8N6C8 24-439): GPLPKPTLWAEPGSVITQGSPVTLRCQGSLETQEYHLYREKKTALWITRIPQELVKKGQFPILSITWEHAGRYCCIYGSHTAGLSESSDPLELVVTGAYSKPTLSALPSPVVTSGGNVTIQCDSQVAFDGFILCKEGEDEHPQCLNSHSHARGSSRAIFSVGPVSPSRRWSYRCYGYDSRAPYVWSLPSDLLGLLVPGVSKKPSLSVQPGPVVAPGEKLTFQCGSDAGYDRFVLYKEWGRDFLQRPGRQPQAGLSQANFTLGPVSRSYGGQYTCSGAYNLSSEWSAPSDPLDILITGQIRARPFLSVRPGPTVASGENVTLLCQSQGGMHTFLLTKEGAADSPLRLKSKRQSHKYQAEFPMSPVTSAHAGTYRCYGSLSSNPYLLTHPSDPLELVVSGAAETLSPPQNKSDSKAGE
Protocol: (§1) Individual ILT family members were overexpressed in 293T cells. Each transfectant was stained with 20 μg/ml of anti-ILT4 antibodies followed by 1 μg/ml of anti-human IgG secondary mAb. Binding of the antibodies to each transfectant was measured by flow cytometry.

human LILRA4 = molecular target: T3, human LILRA4 (human, UniProt P59901 24-499); test: as above
T3 construct: whole, on cells; also called hLILRA4
T3 sequence (P59901 24-499): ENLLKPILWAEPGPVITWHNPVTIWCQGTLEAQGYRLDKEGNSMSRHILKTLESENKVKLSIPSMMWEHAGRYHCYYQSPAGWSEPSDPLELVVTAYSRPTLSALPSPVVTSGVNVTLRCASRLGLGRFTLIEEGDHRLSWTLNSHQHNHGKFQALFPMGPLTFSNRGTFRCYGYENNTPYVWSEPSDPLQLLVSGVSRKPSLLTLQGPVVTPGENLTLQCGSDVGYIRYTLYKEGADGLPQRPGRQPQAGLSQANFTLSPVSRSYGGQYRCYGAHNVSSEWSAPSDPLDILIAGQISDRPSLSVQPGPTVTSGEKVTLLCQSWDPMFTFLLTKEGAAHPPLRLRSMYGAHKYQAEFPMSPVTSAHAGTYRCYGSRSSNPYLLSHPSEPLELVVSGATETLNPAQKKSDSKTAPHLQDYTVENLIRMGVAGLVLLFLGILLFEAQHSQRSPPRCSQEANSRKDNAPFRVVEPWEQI
Protocol: as §1

human LILRA2 = molecular target: T4, human LILRA2 (human, UniProt Q8N149 24-483); test: as above
T4 construct: whole, on cells; also called hLILRA2
T4 sequence (Q8N149 24-483): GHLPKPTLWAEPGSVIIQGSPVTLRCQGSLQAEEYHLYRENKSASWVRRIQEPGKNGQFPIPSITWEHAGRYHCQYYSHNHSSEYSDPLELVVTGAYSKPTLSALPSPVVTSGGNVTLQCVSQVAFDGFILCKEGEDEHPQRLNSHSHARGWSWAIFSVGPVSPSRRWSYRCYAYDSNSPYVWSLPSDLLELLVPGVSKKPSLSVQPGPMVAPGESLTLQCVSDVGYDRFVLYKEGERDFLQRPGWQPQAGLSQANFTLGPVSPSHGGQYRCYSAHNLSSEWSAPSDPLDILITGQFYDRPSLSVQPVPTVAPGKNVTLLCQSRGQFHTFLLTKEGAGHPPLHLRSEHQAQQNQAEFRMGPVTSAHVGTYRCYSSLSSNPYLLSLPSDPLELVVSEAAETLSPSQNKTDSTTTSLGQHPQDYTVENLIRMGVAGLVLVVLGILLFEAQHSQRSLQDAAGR
Protocol: as §1

human ILT3 = molecular target: T5, human ILT3 (human, UniProt Q8NHJ6 22-448); test: as above
T5 construct: whole, on cells; also called hILT3
Protocol: as §1

human ILT2 = molecular target: T6, human ILT2 (human, UniProt Q8NHL6 24-650); test: as above
T6 construct: whole, on cells; also called hILT2
T6 sequence (Q8NHL6 24-650): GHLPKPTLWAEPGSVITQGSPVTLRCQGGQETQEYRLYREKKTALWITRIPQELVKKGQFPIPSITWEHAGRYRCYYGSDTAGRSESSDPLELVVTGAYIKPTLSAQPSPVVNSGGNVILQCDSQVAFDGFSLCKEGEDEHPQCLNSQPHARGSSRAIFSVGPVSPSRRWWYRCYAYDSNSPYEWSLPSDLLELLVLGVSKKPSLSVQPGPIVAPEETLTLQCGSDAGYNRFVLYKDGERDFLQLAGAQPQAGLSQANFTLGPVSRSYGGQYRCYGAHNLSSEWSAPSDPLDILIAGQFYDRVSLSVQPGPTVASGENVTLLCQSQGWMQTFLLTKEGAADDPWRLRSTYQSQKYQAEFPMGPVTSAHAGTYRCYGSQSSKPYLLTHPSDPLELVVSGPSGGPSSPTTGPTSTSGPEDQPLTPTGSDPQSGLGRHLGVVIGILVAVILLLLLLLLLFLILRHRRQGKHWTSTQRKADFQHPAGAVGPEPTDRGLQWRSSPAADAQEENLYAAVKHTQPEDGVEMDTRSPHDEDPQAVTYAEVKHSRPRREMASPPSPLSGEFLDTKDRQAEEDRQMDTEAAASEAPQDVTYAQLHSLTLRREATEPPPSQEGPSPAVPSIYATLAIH
Protocol: as §1

human LILRA6 = molecular target: T7, human LILRA6 (human, UniProt Q6PI73 24-481); test: as above
T7 construct: whole, on cells; also called hLILRA6
T7 sequence (Q6PI73 24-481): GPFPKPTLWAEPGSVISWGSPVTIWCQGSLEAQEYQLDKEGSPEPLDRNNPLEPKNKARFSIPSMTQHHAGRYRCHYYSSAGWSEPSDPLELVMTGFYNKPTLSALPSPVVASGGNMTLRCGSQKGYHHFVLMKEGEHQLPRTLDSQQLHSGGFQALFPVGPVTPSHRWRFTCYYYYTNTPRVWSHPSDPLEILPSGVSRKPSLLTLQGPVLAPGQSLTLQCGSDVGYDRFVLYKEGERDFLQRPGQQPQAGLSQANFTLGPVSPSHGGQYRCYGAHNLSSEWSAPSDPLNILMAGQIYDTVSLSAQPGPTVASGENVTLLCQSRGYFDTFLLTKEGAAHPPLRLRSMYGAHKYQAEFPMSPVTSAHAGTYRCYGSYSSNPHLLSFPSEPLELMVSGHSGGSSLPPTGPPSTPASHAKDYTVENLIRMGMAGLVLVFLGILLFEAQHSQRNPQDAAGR
Protocol: as §1

human LILRA5 [2] = molecular target: T8, human LILRA5 (human, UniProt A6NI73 42-299); test: as above
T8 construct: whole, on cells; also called hLILRA5
Protocol: as §1

human LIR8 = molecular target: T9, human LIR8 (human, UniProt O75023 24-590); test: as above
T9 construct: whole, on cells; also called hLIR8
T9 sequence (O75023 24-590): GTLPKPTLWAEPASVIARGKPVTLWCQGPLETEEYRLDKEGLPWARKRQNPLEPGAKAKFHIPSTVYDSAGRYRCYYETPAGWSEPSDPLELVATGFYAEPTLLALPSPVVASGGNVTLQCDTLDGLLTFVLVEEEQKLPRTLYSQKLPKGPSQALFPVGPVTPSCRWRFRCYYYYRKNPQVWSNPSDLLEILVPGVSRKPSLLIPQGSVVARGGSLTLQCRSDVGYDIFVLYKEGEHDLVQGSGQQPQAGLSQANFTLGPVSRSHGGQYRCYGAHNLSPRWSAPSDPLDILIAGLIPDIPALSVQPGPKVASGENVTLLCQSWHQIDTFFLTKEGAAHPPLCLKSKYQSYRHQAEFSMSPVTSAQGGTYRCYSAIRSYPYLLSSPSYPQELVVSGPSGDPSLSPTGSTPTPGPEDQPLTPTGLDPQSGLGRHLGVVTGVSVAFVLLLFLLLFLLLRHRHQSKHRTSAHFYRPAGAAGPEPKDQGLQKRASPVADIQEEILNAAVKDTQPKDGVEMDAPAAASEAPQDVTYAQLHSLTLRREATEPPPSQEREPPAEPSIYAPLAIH
Protocol: as §1

human ILT5 = molecular target: T10, human ILT5 (human, UniProt O75022 24-631); test: as above
T10 construct: whole, on cells; also called hILT5; LILRB3
Protocol: as §1

human LILRA1 = molecular target: T11, human LILRA1 (human, UniProt O75019 17-489); test: as above
T11 construct: whole, on cells; also called hLILRA1; LIRA1
T11 sequence (O75019 17-489): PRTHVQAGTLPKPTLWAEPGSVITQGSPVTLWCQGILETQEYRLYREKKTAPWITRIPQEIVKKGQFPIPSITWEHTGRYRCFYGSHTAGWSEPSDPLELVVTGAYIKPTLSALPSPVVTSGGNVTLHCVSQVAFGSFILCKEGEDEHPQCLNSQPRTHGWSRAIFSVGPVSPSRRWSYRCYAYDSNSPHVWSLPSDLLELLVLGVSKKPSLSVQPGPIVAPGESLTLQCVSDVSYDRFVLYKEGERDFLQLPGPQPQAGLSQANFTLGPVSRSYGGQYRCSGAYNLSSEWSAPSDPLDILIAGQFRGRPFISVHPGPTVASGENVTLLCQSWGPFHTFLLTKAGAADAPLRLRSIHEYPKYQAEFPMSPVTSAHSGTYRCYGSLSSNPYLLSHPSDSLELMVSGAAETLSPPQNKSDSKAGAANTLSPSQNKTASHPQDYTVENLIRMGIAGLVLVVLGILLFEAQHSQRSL
Protocol: as §1

hILT4-His-Avi tag [3] = molecular target: T12, hILT4-His-Avi tag (human, UniProt Q8N423 22-459); test: SPR Biacore T200, 37 C; antibody captured by anti-human Fc on CM4 chip, hILT4-His-Avi as analyte; 1:1 Langmuir fit
T12 construct: also called monomeric human ILT4; extracellular region of hILT4 linked to a His-Avi tag
T12 sequence (Q8N423 other isoform, or with tags, fused parts or gaps): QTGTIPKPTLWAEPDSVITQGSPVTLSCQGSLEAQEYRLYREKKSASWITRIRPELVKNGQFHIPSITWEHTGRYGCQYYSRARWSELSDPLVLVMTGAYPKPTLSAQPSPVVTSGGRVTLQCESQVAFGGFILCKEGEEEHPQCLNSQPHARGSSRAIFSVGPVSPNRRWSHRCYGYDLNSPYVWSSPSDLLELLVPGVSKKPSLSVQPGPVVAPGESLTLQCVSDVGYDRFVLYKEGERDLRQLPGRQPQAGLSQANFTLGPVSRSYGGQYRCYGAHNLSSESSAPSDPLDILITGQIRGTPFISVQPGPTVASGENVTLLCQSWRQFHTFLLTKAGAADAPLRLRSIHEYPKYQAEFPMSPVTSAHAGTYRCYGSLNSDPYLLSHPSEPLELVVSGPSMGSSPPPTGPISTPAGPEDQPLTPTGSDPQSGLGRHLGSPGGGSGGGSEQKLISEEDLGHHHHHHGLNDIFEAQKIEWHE
Protocol: The running buffer was 10 mM HEPES pH 7.4 supplemented with 0.05% Tween-20 and 1 g/L BSA. All anti-ILT4 antibodies were captured on a CM4 chip with pre-immobilized anti-human Fc capture antibody from Southern Biotech (catalog number 2081-01). […] All data were double-referenced and fitted to a 1:1 Langmuir model with mass transport using Biacore T200 Evaluation Software version 3.1.

[4] = molecular target: T13, human ILT4 (hILT4) expressed on cells (human, UniProt Q8N423 22-597); test: flow cytometry on hILT4-transfected CHO cells, PE anti-human IgG secondary, GMFI (PE); EC50 from the table below the graph; the table has no unit, the concentration axis is in ug/mL
T13 construct: hILT4 on transfected CHO or 293T cells, or native on human monocytes and macrophages; also called LILRB2
T13 sequence (Q8N423 other isoform, or with tags, fused parts or gaps): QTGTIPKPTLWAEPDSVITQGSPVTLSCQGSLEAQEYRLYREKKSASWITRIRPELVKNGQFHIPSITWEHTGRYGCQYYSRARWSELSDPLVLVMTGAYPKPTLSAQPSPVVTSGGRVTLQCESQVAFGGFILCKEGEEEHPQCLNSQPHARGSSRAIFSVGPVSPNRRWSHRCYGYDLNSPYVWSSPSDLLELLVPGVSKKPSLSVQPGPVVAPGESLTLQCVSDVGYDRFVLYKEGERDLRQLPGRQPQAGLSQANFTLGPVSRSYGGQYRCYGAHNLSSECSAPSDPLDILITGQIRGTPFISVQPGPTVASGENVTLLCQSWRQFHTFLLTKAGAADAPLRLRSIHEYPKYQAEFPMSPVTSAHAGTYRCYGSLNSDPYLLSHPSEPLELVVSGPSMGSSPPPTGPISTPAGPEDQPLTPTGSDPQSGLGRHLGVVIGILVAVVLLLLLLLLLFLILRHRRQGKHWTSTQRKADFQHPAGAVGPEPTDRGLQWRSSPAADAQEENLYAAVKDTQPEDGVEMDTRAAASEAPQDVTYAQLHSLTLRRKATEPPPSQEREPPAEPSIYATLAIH

hILT4-His-Avi tag [5] = molecular target: T12, hILT4-His-Avi tag; test: SPR Biacore T200, 37 C; antibody captured on protein A/G chip, monomeric hILT4 as analyte; kinetic fit
Protocol: (§2) The binding kinetics of the parent and germline reversion mutant anti-hILT4 antibodies (in the context of IgG1.3) were measured via Surface Plasmon Resonance (SPR) using a Biacore® T200 instrument. The assay temperature was 37° C. and the running buffer was PBS pH 7.4 supplemented with 0.05% Tween-20. Allanti-hILT4 antibodies were captured on a CM4 chip with pre-immobilized protein A/G (Pierce Thermo Scientific catalog number 21186). […] Monomeric human ILT4 was injected as analyte. […] The hILT4 used in this experiment, comprising the extracellular region of hILT4 linked to a His-Avi tag, consists of the following amino acid sequence: […]

rhILT4-Fc [6] = molecular target: T1, rhILT4-Fc; test: flow cytometry blocking assay: antibody titrated (12 points) with rhILT4-Fc fixed at 30 µg/ml; rhILT4-Fc bound to HLA-B overexpressing CHO cells read as % Positive; blocked ligand: HLA-B; the IC50 table has no unit, the concentration axis is in ug/mL
[7] = molecular target: T13, human ILT4 (hILT4) expressed on cells; test: flow cytometry cross-blocking on hILT4 CHO cells: unlabelled antibody titrated from 40 µg/mL, then PE-21D9.IgG1.1f at 1.5 µg/mL; competitor: PE-21D9; GMFI (PE) falls from about 595 to about 60; the table calls the value EC50 and has no unit, the concentration axis is in µg/mL
Excerpt: (§3) After washing, the samples were acquired on a FACSCanto™ cytometer (BD Bioscience, San Jose) and analyzed with Flowjo™ software (Tree Star, Inc, Ashland, Oreg.).

hILT4-His-Avi tag [8] = molecular target: T12, hILT4-His-Avi tag; test: SPR Biacore T200, 37 C; antibody captured on protein A/G chip, monomeric hILT4 as analyte; steady state fit
Protocol: as §2

[9] = molecular target: T13, human ILT4 (hILT4) expressed on cells; test: flow cytometry on human monocytes of a healthy donor, directly labelled antibody, GMFI; EC50 from the table below the graph; the table has no unit, the concentration axis is in ug/mL
Excerpt: In FIG. 18B, monocytes selected from a normal healthy donor's peripheral blood were stained with individual anti-ILT4 antibodies conjugated to […].

[10] = molecular target: T13, human ILT4 (hILT4) expressed on cells; test: flow cytometry cross-blocking on hILT4 CHO cells: unlabelled antibody titrated from 40 µg/mL, then PE-2H2.IgG1.1f at 1.5 µg/mL; competitor: PE-2H2; GMFI (PE) falls from about 310 to about 45; the table calls the value EC50 and has no unit, the concentration axis is in µg/mL
Excerpt: as §3

[11] = molecular target: T13, human ILT4 (hILT4) expressed on cells; test: antibody titration flow cytometry binding assay on transfected cells, nonlinear regression
human LILRA5 [12] = molecular target: T8, human LILRA5; test: as above
hILT4-His-Avi tag [13] = molecular target: T12, hILT4-His-Avi tag; test: SPR ProteOn XPR36, 37 C; antibody amine-coupled to GLC chip, ILT4 ECD-His-Avi as analyte; kinetic titration
Protocol: The antibody was amine-coupled to a GLC sensor chip in a Proteon XPR36 instrument (BioRad). […] All data were double-referenced, exported, and analyzed with BIAevaluation Software 4.1.1 using the kinetic titration model described by Karlsson et al (Karlsson et al. (2005) Analytical Biochem. 349:136). The running buffer consisted of 10 mM HEPES pH 7.4, 150 mM NaCl and 0.05% Tween-20. The assay temperature was 37° C.

Binder	binding result (human LILRA3)	binding result (human LILRA4)	binding result (human LILRA2)	binding result (human ILT3)	binding result (human ILT2)	binding result (human LILRA6)	binding result (human LIR8)	binding result (human ILT5)	binding result (human LILRA1)	Kd (hILT4-His-Avi tag [3])	app. act. (hILT4-His-Avi tag [3])	EC50 [4]	Kd (hILT4-His-Avi tag [5])	EC50 [9]	further results
B1	no binding (tested: 20 µg/ml)	no binding (tested: 20 µg/ml)	no binding (tested: 20 µg/ml)	no binding (tested: 20 µg/ml)	no binding (tested: 20 µg/ml)	no binding (tested: 20 µg/ml)	no binding (tested: 20 µg/ml)	no binding (tested: 20 µg/ml)	no binding (tested: 20 µg/ml)	22 nM	100%	0.015 µg/mL	14 nM and 15 nM	0.131 µg/mL	IC50 (rhILT4-Fc [1]): 3.6 µg/mL; binding result (human LILRA5 [2]): no binding (tested: 20 µg/ml); koff (hILT4-His-Avi tag [3]): 0.026 s⁻¹; kon (hILT4-His-Avi tag [3]): 1.2e+06 M⁻¹ s⁻¹; koff (hILT4-His-Avi tag [5]): 0.023 s⁻¹ and 0.02 s⁻¹; kon (hILT4-His-Avi tag [5]): 1.6e+06 M⁻¹ s⁻¹ and 1.3e+06 M⁻¹ s⁻¹; IC50 (rhILT4-Fc [6]): 1.55 µg/mL; EC50 [7]: 0.0492 µg/mL; Kd (hILT4-His-Avi tag [8]): 19 nM and 18 nM; EC50 [10]: 0.0279 µg/mL
B2	no binding (tested: 20 µg/ml)	no binding (tested: 20 µg/ml)	no binding (tested: 20 µg/ml)	no binding (tested: 20 µg/ml)	no binding (tested: 20 µg/ml)	no binding (tested: 20 µg/ml)	no binding (tested: 20 µg/ml)	no binding (tested: 20 µg/ml)	no binding (tested: 20 µg/ml)	0.58 nM	94%	0.00416 µg/mL	0.39 nM	0.0341 µg/mL	app. act. (hILT4-His-Avi tag [5]): 93%; EC50 [11]: 0.039 µg/mL; EC50 (human LILRA5 [12]): ~313 µg/mL; Kd (hILT4-His-Avi tag [13]): 0.33 nM
